From the supplement of paper PMC9170038

Test system: MS2 coat protein
Test: apparent KD of MS2 coat protein; higher = weaker reporter binding
Conditions: Eterna round: R107
Experimental: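 RNA-MaP round R107: designed RNA switches with theophylline, tryptophan, arginine or FMN aptamers are transcribed on-chip within common flanks. They are titrated with SNAP-549-labelled MS2 coat protein in RNA-MaP buffer (100 mM Tris pH 7.5, 80 mM KCl, 4 mM MgCl2), without ligand or with the indicated ligand. Median apparent KD per design.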

[1] = input ligand: theophylline 20 uM
[2] = input ligand: theophylline 2 mM
[3] = input ligand: tryptophan 2.4 mM

Row | Sequence | apparent KD of MS2 coat protein (input ligand: arginine 13.2 mM) | apparent KD of MS2 coat protein (input ligand: none) | apparent KD of MS2 coat protein [1] | apparent KD of MS2 coat protein [2] | apparent KD of MS2 coat protein [3]
1 | AAAAGAGGUGGAAGGAGCGGGAGACAUGAGGAUCACCCAUGUGAAGUGACGAAAGGAUCAGCCCAGGUAGGUCGCCAUGUCGAAA [yuiiumullin] | 31 nM | 43.9 nM | 73.2 nM | 25.9 nM | 41.3 nM
2 | AAAAGAGGUGGAAGGAGCGGGAGACAUGAGGAUCACCCAUGUGAAGUGACGAAAGGAUCAUCCCAGGUAGGUCGCCAUGUCGAAA [csstmullin] | 5.43 nM | 147 nM | 44.6 nM | 39 nM | 21.7 nM
3 | AAACAUGAGGAUCACCCAUGUGCUCCUGUCCGAGGACCGGUACGGCCGCCACUCGGUUCUCGGGAGGAUGGUCAAAGACUAUCCA [Omei Trp A SS B v10] | 60.7 nM | 50.6 nM | 44.7 nM | 57.8 nM | 48.8 nM
4 | AAACGCCACGGAAGGAGCGACAUGAGGAUCACCCAUGUAGAUUUGGCGGAUGCACCCUCCUGUCAGGUAGGUCGCCGUGCGAUAA [XArg-B25] | 33.9 nM | 60.8 nM | 109 nM | 89 nM | 86.6 nM
5 | AACAUGAGGAUCACCCAUGUAAAACCGGUACGAGGACCGGUACGGCCGCCACUCGAAACAUGAGGAUCACCCAUGUAAUAAUAUU [Same State Trypophan A GF 21] | 35.2 nM | 63.5 nM | 75 nM | 68.6 nM | 91.3 nM
6 | AACAUGAGGAUCACCCAUGUAUUGGGUGAUACCAGCCUGAAUAAGGGCCCUUGGCAGCACCGCGCUAACUUUAUGUCUGCGAACC [Rebiercete] | 511 nM | 54.1 nM | 432 nM | 368 nM | 277 nM
7 | AACAUGAGGAUCACCCAUGUCUGAACUGAAGGAGCGCUAAACAAGGCAGGUAGGUCGCGGAAUUUUGUGUGCAUAUGCAUAUGGG [9.J] | 22.8 nM | 24.4 nM | 35.3 nM | 29.6 nM | 24.7 nM
8 | AACCACAUGAGGAUCACCCAUGUGACCGCUCGAGGACCGGUACGGCCGCCACUCGUGGAGGGACUUAUGCGUUAUCCGGGUAAAU [theeternabot_sameState_MS2_Trp_A_29] | 16.9 nM |  | 27 nM | 20.9 nM | 
9 | AAGACGGUCGGAAGGAGCGGUACAUGAGGAUCACCCAUGUACCUCUGGGCAUCCGUAGUGUGCCAGGUAGGUCGCCGAUUGCGGG [Esorbevege] | 12.7 nM | 11.7 nM | 23.3 nM | 13.5 nM | 12.1 nM
10 | AAGGUGAUCCCAGAUACCAGCUCAACAUGAGGAUCACCCAUGUACGGGACGAAAGUCCCGGGCCCUUGGCAGCUGGGUUGCCAAG [SSTheo B #19] | 42.2 nM |  | 299 nM |  | 185 nM
11 | AAUAACAUGAGGAUCACCCAUGUAAAAGAUACCAGAGUGAUGAUCCUCCCUUGGCAGCUUAACGCUGAUUGAUUACAAUCAGCGA [TheoAS 3 #Tail #MS2BeforeAptamer #BothOrNeither] | 46.4 nM |  | 128 nM |  | 67.1 nM
12 | AAUAAUAAGGCGGCCGCCACUAAACAUGAGGAUCACCCAUGUCUCGAGCGCUUGCGUUUGGGAAGUAGGACCGGGCCAAUAAUAA [Exclusion - Tryptophan B (Freestyle 5)] | 14.2 nM | 14.5 nM | 16.4 nM | 18.1 nM | 14.2 nM
13 | AAUAAUAGGUGAUCCUGACGAGUGGCAUAACGAGGACCGGUACGGCCGCCACUCGAACAUGAGGAUCACCCAUGUAGCCACUCGA [M'-T'-T-MS2-T'' - Design 5.b] | 32 nM |  | 327 nM | 685 nM | 
